The source of these data is patent US20090099029.

To fix the notation:
B1: MAPK13(p38delta) (protein)
chain: MSLIRKKGFYKQDVNKTAWELPKTYVSPTHVGSGAYGSVCSAIDKRSGEKVAIKKLSRPFQSEIFAKRAYRELLLLKHMQHENVIGLLDVFTPASSLRNFYDFYLVMPFMQTDLQKIMGMEFSEEKIQYLVYQMLKGLKYIHSAGVVHRDLKPGNLAVNEDCELKILDFGLARHADAEMTGYVVTRWYRAPEVILSWMHYNQTVDIWSVGCIMAEMLTGKTLFKGKDYLDQLTQILKVTGVPGTEFVQKLNDKAAKSYIQSLPQTPRKDFTQLFPRASPQAADLLEKMLELDVDKRLTAAQALTHPFFEPFRDPEEETEAQQPFDDSLEHEKLTVDEWKQHIYKEIVNFSPIARKDSRRRSGMKL
B2: EPHA8 (protein)
chain: KKRHCGYSKAFQDSDEEKMHYQNGQAPPPVFLPLHHPPGKLPEPQFYAEPHTYEEPGRAGRSFTREIEASRIHIEKIIGSGDSGEVCYGRLRVPGQRDVPVAIKALKAGYTERQRRDFLSEASIMGQFDHPNIIRLEGVVTRGRLAMIVTEYMENGSLDTFLRTHDGQFTIMQLVGMLRGVGAGMRYLSDLGYVHRDLAARNVLVDSNLVCKVSDFGLSRVLEDDPDAAYTTTGGKIPIRWTAPEAIAFRTFSSASDVWSFGVVMWEVLAYGERPYWNMTNRDVISSVEEGYRLPAPMGCPHALHQLMLDCWHKDRAQRPRFSQIVSVLDALIRSPESLRATATVSRCPPPAFVRSCFDLRGGSGGGGGLTVGDWLDSIRMGRYRDHFAAGGYSSLGMVLRMNAQDVRALGITLMGHQKKILGSIQTMRAQLTSTQGPRRHL
B3: MAPK3(ERK1) (protein)
chain: MAAAAAQGGGGGEPRRTEGVGPGVPGEVEMVKGQPFDVGPRYTQLQYIGEGAYGMVSSAYDHVRKTRVAIKKISPFEHQTYCQRTLREIQILLRFRHENVIGIRDILRASTLEAMRDVYIVQDLMETDLYKLLKSQQLSNDHICYFLYQILRGLKYIHSANVLHRDLKPSNLLINTTCDLKICDFGLARIADPEHDHTGFLTEYVATRWYRAPEIMLNSKGYTKSIDIWSVGCILAEMLSNRPIFPGKHYLDQLNHILGILGSPSQEDLNCIINMKARNYLQSLPSKTKVAWAKLFPKSDSKALDLLDRMLTFNPNKRITVEEALAHPYLEQYYDPTDEPVAEEPFTFAMELDDLPKERLKELIFQETARFQPGVLEAP
B4: MAPK8(JNK1) (protein)
chain: MSRSKRDNNFYSVEIGDSTFTVLKRYQNLKPIGSGAQGIVCAAYDAILERNVAIKKLSRPFQNQTHAKRAYRELVLMKCVNHKNIIGLLNVFTPQKSLEEFQDVYIVMELMDANLCQVIQMELDHERMSYLLYQMLCGIKHLHSAGIIHRDLKPSNIVVKSDCTLKILDFGLARTAGTSFMMTPYVVTRYYRAPEVILGMGYKENVDLWSVGCIMGEMVCHKILFPGRDYIDQWNKVIEQLGTPCPEFMKKLQPTVRTYVENRPKYAGYSFEKLFPDVLFPADSEHNKLKASQARDLLSKMLVIDASKRISVDEALQHPYINVWYDPSEAEAPPPKIPDKQLDEREHTIEEWKELIYKEVMDLEERTKNGVIRGQPSPLAQVQQ
B5: MYLK2 (protein)
chain: MATENGAVELGIQNPSTDKAPKGPTGERPLAAGKDPGPPDPKKAPDPPTLKKDAKAPASEKGDGTLAQPSTSSQGPKGEGDRGGGPAEGSAGPPAALPQQTATPETSVKKPKAEQGASGSQDPGKPRVGKKAAEGQAAARRGSPAFLHSPSCPAIISSSEKLLAKKPPSEASELTFEGVPMTHSPTDPRPAKAEEGKNILAESQKEVGEKTPGQAGQAKMQGDTSRGIEFQAVPSEKSEVGQALCLTAREEDCFQILDDCPPPPAPFPHRMVELRTGNVSSEFSMNSKEALGGGKFGAVCTCMEKATGLKLAAKVIKKQTPKDKEMVLLEIEVMNQLNHRNLIQLYAAIETPHEIVLFMEYIEGGELFERIVDEDYHLTEVDTMVFVRQICDGILFMHKMRVLHLDLKPENILCVNTTGHLVKIIDFGLARRYNPNEKLKVNFGTPEFLSPEVVNYDQISDKTDMWSMGVITYMLLSGLSPFLGDDDTETLNNVLSGNWYFDEETFEAVSDEAKDFVSNLIVKDQRARMNAAQCLAHPWLNNLAEKAKRCNRRLKSQILLKKYLMKRRWKKNFIAVSAANRFKKISSSGALMALGV
B6: MAPK14(p38alpha) (protein)
chain: MSQERPTFYRQELNKTIWEVPERYQNLSPVGSGAYGSVCAAFDTKTGLRVAVKKLSRPFQSIIHAKRTYRELRLLKHMKHENVIGLLDVFTPARSLEEFNDVYLVTHLMGADLNNIVKCQKLTDDHVQFLIYQILRGLKYIHSADIIHRDLKPSNLAVNEDCELKILDFGLARHTDDEMTGYVATRWYRAPEIMLNWMHYNQTVDIWSVGCIMAELLTGRTLFPGTDHINQLQQIMRLTGTPPAYLINRMPSHEARNYIQSLTQMPKMNFANVFIGANPLAVDLLEKMLVLDSDKRITAAQALAHAYFAQYHDPDDEPVADPYDQSFESRDLLIDEWKSLTYDEVISFVPPPLDQEEMES
B7: MAPKAPK3 (protein)
chain: MDGETAEEQGGPVPPPVAPGGPGLGGAPGGRREPKKYAVTDDYQLSKQVLGLGVNGKVLECFHRRTGQKCALKLLYDSPKARQEVDHHWQASGGPHIVCILDVYENMHHGKRCLLIIMECMEGGELFSRIQERGDQAFTEREAAEIMRDIGTAIQFLHSHNIAHRDVKPENLLYTSKEKDAVLKLTDFGFAKETTQNALQTPCYTPYYVAPEVLGPEKYDKSCDMWSLGVIMYILLCGFPPFYSNTGQAISPGMKRRIRLGQYGFPNPEWSEVSEDAKQLIRLLLKTDPTERLTITQFMNHPWINQSMVVPQTPLHTARVLQEDKDHWDEVKEEMTSALATMRVDYDQVKIKDLKTSNNRLLNKRRKKQAGSSSASQGCNNQ
B8: MINK1 (protein)
chain: MGDPAPARSLDDIDLSALRDPAGIFELVEVVGNGTYGQVYKGRHVKTGQLAAIKVMDVTEDEEEEIKQEINMLKKYSHHRNIATYYGAFIKKSPPGNDDQLWLVMEFCGAGSVTDLVKNTKGNALKEDCIAYICREILRGLAHLHAHKVIHRDIKGQNVLLTENAEVKLVDFGVSAQLDRTVGRRNTFIGTPYWMAPEVIACDENPDATYDYRSDIWSLGITAIEMAEGAPPLCDMHPMRALFLIPRNPPPRLKSKKWSKKFIDFIDTCLIKTYLSRPPTEQLLKFPFIRDQPTERQVRIQLKDHIDRSRKKRGEKEETE
B9: MAPKAPK5(PRAK) (protein)
chain: MSEESDMDKAIKETSILEEYSINWTQKLGAGISGPVRVCVKKSTQERFALKILLDRPKARNEVRLHMMCATHPNIVQIIEVFANSVQFPHESSPRARLLIVMEMMEGGELFHRISQHRHFTEKQASQVTKQIALALRHCHLLNIAHRDLKPENLLFKDNSLDAPVKLCDFGFAKIDQGDLMTPQFTPYYVAPQVLEAQRRHQKEKSGIIPTSPTPYTYNKSCDLWSLGVIIYVMLCGYPPFYSKHHSRTIPKDMRRKIMTGSFEFPEEEWSQISEMAKDVVRKLLKVKPEERLTIEGVLDHPWLNSTEALDNVLPSAQLMMDKAVVAGIQQAHAEQLANMRIQDLKVSLKPLHSVNNPILRKRKLLGTKPKDSVYIHDHENGAEDSNVALEKLRDVIAQCILPQAGENEDEKLNEVMQEAWKYNRECKLLRDTLQSFSWNGRGFTDKVDRLKLAEIVKQVIEEQTTSHESQ

In this series the target is T1, Bovine, dephosphorylated, Myelin Basic Protein (MBP), P02687.
T1 chain: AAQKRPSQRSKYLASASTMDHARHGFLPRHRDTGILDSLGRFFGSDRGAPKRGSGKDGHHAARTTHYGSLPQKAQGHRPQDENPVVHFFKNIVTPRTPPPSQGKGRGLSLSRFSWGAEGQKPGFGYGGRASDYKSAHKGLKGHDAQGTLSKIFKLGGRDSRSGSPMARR
As for B1, the “MBP Kinase Activity” value is given as “Weak”.

In the case of B2, the “MBP Kinase Activity” value is reported as “Weak”. In the case of B3, the “MBP Kinase Activity” value is on record as “Strong”. With B4, the “MBP Kinase Activity” value was “Negative”. For B5 the value was “Negative”; for B6, “Strong”; for B7, “Strong”. For B8 the value was “Weak”. For B9 the value was “Strong”.
